B1: Di-PEG 12kDa G-CSF mixture (conjugate, UniProt P09919 31-207, looked up)
Granulocyte …: TPLGPASSLPQSFLLKCLEQVRKIQGDGAALQEKLVSECATYKLCHPEELVLLGHSLGIPWAPLSSCPSQALQLAGCLSQLHSGLFLYQGLLQALEGISPELGPTLDTLQLDVADFATTIWQQMEELGMAPALQPTQGAMPAFASAFQRRAGGVLVASHLQSFLEVSYRVLRHLAQP
modifications: two 12 kDa PEG chains
B2: Di'-PEG 20kDa G-CSF isoform (conjugate, UniProt P09919 31-207, looked up)
Granulocyte …: B1 Granulocyte …
modifications: two 20 kDa PEG chains
B3: Neulasta (conjugate, UniProt P09919 31-207, looked up)
Granulocyte …: B1 Granulocyte …
modifications: pegfilgrastim; N-terminal Met, 20 kDa PEG

Columns and labels:
male rats [1] = assay: in vivo single dose biocomparability study of di-PEG G-CSF product with Neupogen and Neulasta (WBC and neutrophil counts); conditions: single subcutaneous injection 0.1 mg/kg
Protocol: The di-PEG G-CSF product comprising a mixture of di- and di' PEG G-CSF conjugate isoforms according to the invention was tested in vivo, to show the improved activity versus unmodified G-CSF (Neupogen®) and to compare its biological activity with commercially available mono-pegylated G-CSF (Neulasta®).
The in vivo study was an open randomized, parallel- grouped single dose biocomparability study of Neupogen® and Neulasta® with the di-PEG G-CSF product. It was carried out by subcutaneously injecting 0.1 mg/kg to male rats. Six animals per group per time point were subjected to bleeding. Serum samples were subjected to a complete blood count on the same day that the samples were collected. The average white blood cell counts and neutrophil counts were calculated.

[2] = in vivo clearance (pharmacokinetic) studies in sham-operated and nephrectomised rats; conditions: intravenous 0.005 mg/kg; for clearance mechanism: sham-operated and nephrectomised rats, inferred from similar kinetics
Protocol: The clearance mechanism of (i) the Di-PEG G-CSF product mixture (43 kDa total MW) comprising di-PEG 12kDa G-CSF and […] isoforms according to example A6 and of (ii) the single isoform, Di'-PEG 20kDa G-CSF conjugate (59 kDa total MW) according to example B, was tested in vivo in comparison to commercially available mono-pegylated G-CSF (Neulasta®)
The in vivo studies were open randomized, parallel- grouped clearance studies of Neulasta® with either the Di-PEG G-CSF product mixture or the single di'-PEG 20kDa G-CSF conjugate isoform in sham-operated (control group) and nephrectomised rats. The studies were carried out by intravenous injection of 0.005 mg/kg of the conjugate to male rats. Four animals per group per time point were subjected to bleeding. The remaining G-CSF plasma concentration was determined in the serum samples and relevant pharmacokinetic data such as the plasma elimination half-life were calculated.

male rats [3] = assay: in vivo single dose biocomparability study of Di'-PEG 20kDa G-CSF isoform with Neupogen and Neulasta (WBC and neutrophil counts); conditions: single subcutaneous injection 0.1 mg/kg; for average white blood cell counts (WBC) and WBC response: Figure 14; for average neutrophil counts and neutrophil response: Figure 15
Protocol: For testing the biological activity of the Di'-PEG 20kDa G-CSF conjugate isoform in vivo, the single isoform was highly purified by preparative cation exchange chromatography. The defined product contained at least 95% di'-PEG G-CSF conjugate isoform as described in example A 6, paragraph d)ii). The in vivo study was an open randomized, parallel- grouped single dose biocomparability study of Neupogen® and Neulasta® with the single di'-PEG G-CSF conjugate isoform. It was carried out by subcutaneously injecting 0.1 mg/kg to male rats. Six animals per group per time point were subjected to bleeding. Serum samples were subjected to a complete blood count on the same day that the samples were collected. The average white blood cell counts and neutrophil counts were calculated.

[4] = NE - nephrectomised rats, PK study Neulasta vs Di-PEG 12kDa G-CSF mixture
[5] = SH - sham operated rats, PK study Neulasta vs Di-PEG 12kDa G-CSF mixture
[6] = compared to unmodified G-CSF (Neupogen®)
[7] = NE - nephrectomised rats, PK study Neulasta vs Di'-PEG 20kDa G-CSF isoform
[8] = SH - sham operated rats, PK study Neulasta vs Di'-PEG 20kDa G-CSF isoform

| Molecule | average white blood cell counts (WBC) (male rats [1]; compared to Neulasta®, Figure 8) | average neutrophil counts (male rats [1]; compared to Neulasta®, Figure 9) | average white blood cell counts (WBC) and WBC response (male rats [1]; compared to unmodified G-CSF (Neupogen®), Figure 8) | average neutrophil counts and neutrophil response (male rats [1]; compared to unmodified G-CSF (Neupogen®), Figure 9) | Elimination half-life [2, 4] | Elimination half-life [2, 5] | clearance mechanism [2] | average white blood cell counts (WBC) and WBC response (male rats [3]; compared to Neulasta®) | average neutrophil counts and neutrophil response (male rats [3]; compared to Neulasta®) | average white blood cell counts (WBC) and WBC response (male rats [3]; [6]) | average neutrophil counts and neutrophil response (male rats [3]; [6]) | Elimination half-life [2, 7] | Elimination half-life [2, 8] |
| --- | --- | --- | --- | --- | --- | --- | --- | --- | --- | --- | --- | --- | --- |
| B1 | at least biosimilar, perhaps potentially better, because of slightly higher maximum WBC and neutrophil counts | at least biosimilar, perhaps potentially better, because of slightly higher maximum WBC and neutrophil counts | higher WBC and neutrophil counts and longer sustained WBC and neutrophil response | higher WBC and neutrophil counts and longer sustained WBC and neutrophil response | 3.4 h | 2.9 h | predominantly cleared by Neutrophil Receptor-mediated clearance | – | – | – | – | – | – |
| B2 | – | – | – | – | – | – | predominantly cleared by Neutrophil Receptor-mediated clearance | bioimproved because of higher maximum WBC and neutrophil counts and its sustained WBC and neutrophil response | bioimproved because of higher maximum WBC and neutrophil counts and its sustained WBC and neutrophil response | i) higher WBC and neutrophil counts and ii) showed a sustained WBC and neutrophil response | i) higher WBC and neutrophil counts and ii) showed a sustained WBC and neutrophil response | 3.7 h | 3.3 h |
| B3 | – | – | – | – | 2.5 h | 1.9 h | predominantly cleared by Neutrophil Receptor-mediated clearance | – | – | – | – | 2.1 h | 1.9 h |
